This is an account of results in patent US20220073646A1 (Hoffmann-La Roche, published 2022).

Broadly, the EC50 is the concentration at which the effect is half-maximal. A lower EC50 goes with higher potency in that assay. In general, koff refers to the rate constant with which the complex falls apart. A word on the kon: it is the second-order rate constant of association.

For experiment [1], the target named is T1, mouse 4-1BB on activated mouse splenocytes (mouse, UniProt P20334 24-256). Description: flow cytometry, activated murine CD8 T cells.
Description: (§1) Cells were incubated for 30 min at 4° C., washed twice with 200 μL/well FACS-buffer and resuspended for fixation with 50 μL/well DPBS containing 1% (v/v) formaldehyde. The next day cells were resuspended in 200 μL/well FACS buffer and acquired using the 2-laser Cantoll (BD Bioscience with DIVA software) or 5-laser Fortessa (BD Bioscience with DIVA software). Gates were set on CD8⁺ and CD4⁺ T cells and the median fluorescence intensity (MFI) of the secondary detection antibody was used to analyze binding of primary antibodies. Using Graph Pad Prism (Graph Pad Software Inc.) data was baselined by subtracting the blank values (no primary antibody added) and the EC₅₀ values were calculated using non-linear regression curve fit (robust fit).
In experiment [2] the target is T1, mouse 4-1BB on activated mouse …. Put plainly: flow cytometry, activated murine CD4 T cells. (In general: A flow cytometer gives signals particle by particle.)
Description: as §1
For experiment [3], the target named is T2, human 4-1BB on cells (human, UniProt Q07011 24-255). Description: cell-based or functional assay.
In experiment [4] the target is T3, human fibroblast activation protein (huFAP) on cells (human, UniProt Q12884 1-760).
T3 construct: also called NIH/3T3-huFAP clone 39; NIH/3T3-huFAP clone 19
Put plainly: flow cytometry, WM266-4.

For experiment [5], the target named is T4, human OX40 on cells (human, UniProt P43489 29-277).
T4 sequence: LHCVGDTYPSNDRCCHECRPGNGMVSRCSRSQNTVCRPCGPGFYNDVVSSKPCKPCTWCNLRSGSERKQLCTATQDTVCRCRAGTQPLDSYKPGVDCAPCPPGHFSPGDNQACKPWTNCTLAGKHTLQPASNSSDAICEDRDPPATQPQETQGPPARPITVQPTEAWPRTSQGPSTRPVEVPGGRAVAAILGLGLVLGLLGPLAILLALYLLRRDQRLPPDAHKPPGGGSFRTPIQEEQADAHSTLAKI
Description: flow cytometry, activated human CD4 T cells.

The target of experiment [6] is T5, recombinant human 4-1BB Fc(kih) (human, UniProt P0DOX5 223-449 = IgG part, biotin on C-terminal Avi tag where used biotinylated).
T5 construct: also called hu4-1BB; biotinylated human 4-1BB
Description: SPR, captured IgG, 4-1BB Fc(kih) analyte.
Description: (§2) All SPR experiments were performed on a Biacore T200 at 25° C. with HBS-EP as running buffer (0.01 M HEPES pH 7.4, 0.15 M NaCl, 3 mM EDTA, 0.005% Surfactant P20, Biacore, Freiburg/Germany).
Anti-human Fab antibody (Biacore, Freiburg/Germany) was directly coupled on a CM5 chip at pH 5.0 using the standard amine coupling kit (Biacore, Freiburg/Germany). The immobilization level was approximately 7500 RU. […] The dissociation was monitored for 120 seconds. Bulk refractive index differences were corrected for by subtracting the response obtained on reference flow cell.

In experiment [7] the target is recombinant cynomolgus 4-1BB Fc(kih) (cynomolgus, UniProt P0DOX5 223-449 = IgG part, biotin on C-terminal Avi tag where used biotinylated). Description: SPR, captured IgG, cyno 4-1BB Fc(kih) analyte. (SPR reads the build-up and loss of mass on a sensor chip optically.)
Description: as §2
Anti-human Fab antibody (Biacore, Freiburg/Germany) was directly coupled on a CM5 chip at pH 5.0 using the standard amine coupling kit (Biacore, Freiburg/Germany). The immobilization level was approximately 9000 RU.
In experiment [8] the target is T6, cynomolgus 4-1BB on activated cynomolgus PBMC (cynomolgus, UniProt Q07011 24-255 (human entry)).
T6 chain: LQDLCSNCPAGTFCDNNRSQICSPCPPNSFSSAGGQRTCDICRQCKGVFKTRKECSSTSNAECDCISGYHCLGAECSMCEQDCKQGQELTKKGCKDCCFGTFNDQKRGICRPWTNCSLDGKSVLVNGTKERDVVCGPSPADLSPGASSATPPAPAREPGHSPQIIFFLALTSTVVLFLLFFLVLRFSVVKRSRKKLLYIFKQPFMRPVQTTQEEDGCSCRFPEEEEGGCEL
Description: flow cytometry, activated cynomolgus CD4 T cells.
Description: (§3) Cells were washed twice with FACS buffer and resuspended in 100 μL/well FACS buffer supplied with 0.2 μg/mL DAPI to discriminated dead from living cells. Cells were immediately acquired using a 5-laser Fortessa (BD Bioscience with DIVA software). Gates were set on CD8⁺ and CD4⁺ T cells and the median fluorescence intensity (MFI) of the secondary detection antibody was used to analyze binding of primary antibodies. Using Graph Pad Prism (Graph Pad Software Inc.) data was baselined by subtracting the blank values (no primary antibody added) and the EC₅₀ values were calculated using non-linear regression curve fit (robust fit).

Experiment [9] addresses T2, human 4-1BB on cells. Description: flow cytometry, activated human CD8 T cells.
Description: Plates were centrifuged 4 minutes with 400×g at 4° C. and supernatant was discarded. […] Afterwards cells were washed once with 200 μL/well cold FACS buffer (DPBS supplied with 2% (v/v) FBS, 5 mM EDTA pH8 (Amresco, Cat. No. E177) and 7.5 mM sodium azide (Sigma-Aldrich S2002)). […] Cells were washed four times with 200 μL/well 4° C.
Cells were washed twice with 200 μL FACS buffer/well and fixated by resuspending in 50 μL/well DPBS containing 1% Formaldehyde (Sigma, HT501320-9.5L). Cells were acquired the same or next day using a 3-laser Canto II (BD Bioscience with DIVA software) or a 5-laser Fortessa (BD Bioscience with DIVA software) or 3-laser MACSQuant Analyzer 10 (Miltenyi Biotech). Gates were set on CD8⁺ and CD4⁺ T cells and the median fluorescence intensity (MFI) or geo mean of fluorescence intensity of the secondary detection antibody was used to analyze binding of primary antibodies. Using Graph Pad Prism (Graph Pad Software Inc.) data was baselined by subtracting the blank values (no primary antibody added) and the EC50 values were calculated using non-linear regression curve fit (robust fit).
Experiment [10] concerns the target T2, human 4-1BB on cells. Put plainly: cell-based or functional assay. The source holds these as a separate data set.
Experiment [11] deals with T6, cynomolgus 4-1BB on activated …. Put plainly: flow cytometry, activated cynomolgus CD8 T cells.
Description: as §3
Experiment [12] addresses T1, mouse 4-1BB on activated mouse …. Description: flow cytometry, activated mouse T cells.
Description: as §1
The target in experiment [13] is T7, murine FAP (His-tagged ectodomain) (mouse, UniProt P97321 27-761).
T7 construct: also called mu FAP
Put plainly: SPR, FAP captured via anti-His, 1:1 fit, apparent KD (bivalent).
Description: The capacity of the bispecific constructs to bind human, murine and cynomolgus FAP was assessed by surface plasmon resonance (SPR). All SPR experiments were performed on a Biacore T200 (Biacore) at 25° C. with HBS-EP as running buffer (0.01 M HEPES pH 7.4, 0.15 M NaCl, 3 mM EDTA, 0.005% Surfactant P20, (Biacore).
Immobilization levels for the anti-His antibody of up to 18000 resonance units (RU) were used.
Following the capture step, the bispecific constructs as well as control molecules were immediately passed over the chip surface at a concentration ranging from 0.006-100 nM with a flow rate of 30 μL/minute for 280 s and a dissociation phase of 180 s. Bulk refractive index differences were corrected for by subtracting the response obtained in a reference flow cell, where no FAP was immobilized. Affinity was determined using the Langmuir 1:1 curve fitting. For bivalent binding the same 1:1 fitting was used leading to an apparent KD value.

Experiment [14] addresses T8, human GITR on HEK cells (HEK-GITR) (human, UniProt Q9Y5U5 26-241).
T8 construct: also called cell surface expressed human GITR
T8 sequence: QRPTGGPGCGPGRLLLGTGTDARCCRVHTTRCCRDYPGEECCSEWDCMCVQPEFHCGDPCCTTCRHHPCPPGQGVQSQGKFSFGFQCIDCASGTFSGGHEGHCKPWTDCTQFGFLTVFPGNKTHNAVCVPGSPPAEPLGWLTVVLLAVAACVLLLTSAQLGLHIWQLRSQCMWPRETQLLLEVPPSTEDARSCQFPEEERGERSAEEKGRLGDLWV
Put plainly: flow cytometry, HEK-GITR.
Description: Cells were washed twice with complete media and once with PBS+2% FBS before adjusting cell density to 1×10⁷ cells/mL in PBS+2% FBS.
Plates were centrifuged at 4° C., 3 minutes at 600×g and supernatant was flicked off. Cells were resuspended in 50 μL/well of 4° C. cold PBS+2% FBS containing titrated anti-GITR antibody constructs for 120 minutes at 4° C. Plates were washed twice with 200 μL/well 4° C. PBS+2% FBS to remove unbound construct. […] Plates were centrifuged at 4° C. for 3 minutes at 600×g and washed twice with PBS+2% FBS. […] Plates were centrifuged at 4° C., 3 minutes at 600×g and supernatant was flicked off.

Numbering of substitutions follows the chain as printed. Names and notes keep the numbering of the source.

T1 sequence (P20334 24-256 limits assumed): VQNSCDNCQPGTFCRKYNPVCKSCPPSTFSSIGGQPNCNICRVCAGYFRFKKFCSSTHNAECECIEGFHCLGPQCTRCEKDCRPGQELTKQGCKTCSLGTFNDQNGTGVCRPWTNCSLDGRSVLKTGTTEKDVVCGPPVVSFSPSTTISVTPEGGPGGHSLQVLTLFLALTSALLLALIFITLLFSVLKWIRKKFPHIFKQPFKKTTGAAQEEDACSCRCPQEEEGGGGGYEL

B1: 20G2 mu IgG1 κ DAPG (antibody, V domains shown)
VH: QVQLVQSGAEVKKPGSSVKVSCKASGGTFSSYAISWVRQAPGQGLEWMGGIIPIFGTANYAQKFQGRVTITADKSTSTAYMELSSLRSEDTAVYYCARSYYWESYPFDYWGQGTTVTVSS
VL: DIQMTQSPSTLSASVGDRVTITCRASQSISSWLAWYQQKPGKAPKLLIYDASSLESGVPSRFSGSGSGTEFTLTISSLQPDDFATYYCQQQHSYYTFGQGTKVEIK
notes: mouse IgG1 kappa with DAPG mutations; also called 20G2 mouse IgG1 DAPG
As to B1, the figures for the EC50 in [1] and in experiment [2] were 17.9 nM and 11.2 nM, respectively.

B2: 25G7/FAP P329GLALA IgG1 1+1 (bispecific antibody)
heavy 1: not shown
light 1: SSELTQDPAVSVALGQTVRITCQGDSLRSYYASWYQQKPGQAPVLVIYGKNNRPSGIPDRFSGSSSGNTASLTITGAQAEDEADYYCNSLDRRGMWVFGGGTKLTVLGQPKAAPSVTLFPPSSEELQANKATLVCLISDFYPGAVTVAWKADSSPVKAGVETTTPSKQSNNKYAASSYLSLTPEQWKSHRSYSCQVTHEGSTVEKTVAPTECS
heavy 2: EVQLLESGGGLVQPGGSLRLSCAASGFTFSSHAMSWVRQAPGKGLEWVSAIWASGEQYYADSVKGRFTISRDNSKNTLYLQMNSLRAEDTAVYYCAKGWLGNFDYWGQGTLVTVSSASVAAPSVFIFPPSDEQLKSGTASVVCLLNNFYPREAKVQWKVDNALQSGNSQESVTEQDSKDSTYSLSSTLTLSKADYEKHKVYACEVTHQGLSSPVTKSFNRGECDKTHTCPPCPAPEAAGGPSVFLFPPKPKDTLMISRTPEVTCVVVDVSHEDPEVKFNWYVDGVEVHNAKTKPREEQYNSTYRVVSVLTVLHQDWLNGKEYKCKVSNKALGAPIEKTISKAKGQPREPQVCTLPPSRDELTKNQVSLSCAVKGFYPSDIAVEWESNGQPENNYKTTPPVLDSDGSFFLVSKLTVDKSRWQQGNVFSCSVMHEALHNHYTQKSLSLSPGK
light 2: EIVLTQSPGTLSLSPGERATLSCRASQSVSRSYLAWYQQKPGQAPRLLIIGASTRATGIPDRFSGSGSGTDFTLTISRLEPEDFAVYYCQQGQVIPPTFGQGTKVEIKSSASTKGPSVFPLAPSSKSTSGGTAALGCLVKDYFPEPVTVSWNSGALTSGVHTFPAVLQSSGLYSLSSVVTVPSSSLGTQTYICNVNHKPSNTKVDKKVEPKSCD
Turning to B2, the “EC50 of NFκB/luciferase activation, 4-1BB reporter HeLa with NIH/3T3-huFAP clone 19” value (shortened to “EC50 … with NIH/3T3-huFAP clone 19”) in [3] was 3.2 nM.

B3: 25G7/FAP P329GLALA IgG1 2+2 (bispecific antibody)
heavy: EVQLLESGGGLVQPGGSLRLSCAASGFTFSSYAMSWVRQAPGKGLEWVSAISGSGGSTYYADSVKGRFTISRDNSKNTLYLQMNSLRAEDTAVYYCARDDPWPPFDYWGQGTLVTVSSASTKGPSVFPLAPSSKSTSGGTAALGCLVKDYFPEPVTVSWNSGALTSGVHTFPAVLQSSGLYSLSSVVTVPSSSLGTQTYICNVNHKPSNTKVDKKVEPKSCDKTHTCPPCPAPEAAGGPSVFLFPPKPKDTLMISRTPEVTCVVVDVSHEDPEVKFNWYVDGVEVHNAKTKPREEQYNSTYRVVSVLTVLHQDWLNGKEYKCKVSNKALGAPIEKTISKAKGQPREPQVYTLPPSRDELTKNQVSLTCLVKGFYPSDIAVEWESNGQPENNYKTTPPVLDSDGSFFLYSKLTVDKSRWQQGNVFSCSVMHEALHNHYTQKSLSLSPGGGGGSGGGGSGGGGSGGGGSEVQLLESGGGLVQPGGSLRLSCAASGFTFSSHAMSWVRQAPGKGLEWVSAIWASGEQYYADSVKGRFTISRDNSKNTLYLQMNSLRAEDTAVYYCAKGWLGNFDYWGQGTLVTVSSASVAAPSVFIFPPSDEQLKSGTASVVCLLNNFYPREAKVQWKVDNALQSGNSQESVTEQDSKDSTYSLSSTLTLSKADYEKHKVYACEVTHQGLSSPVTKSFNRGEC
light 1: B2 light 1
light 2: B2 light 2
On to B3, for which the “EC50 … with NIH/3T3-huFAP clone 19” value in experiment [3] amounted to 0.05 nM.

B4: 4-1BB(25G7)/FAP(4B9) 4+1 (bispecific antibody, human IgG1, lambda, L234A L235A)
heavy 1: not shown
heavy 2: not shown
light: B2 light 1
With B4, in experiment [3], the “EC50 … with NIH/3T3-huFAP clone 19” value was determined as 0.04 nM and the “EC50 of NFκB/luciferase activation, 4-1BB reporter HeLa with WM-266-4” value stood at 0.2 nM.

B5: 4-1BB(25G7)/FAP(4B9) 2+1 (bispecific antibody, human IgG1, lambda, L234A L235A)
heavy 1: not shown
heavy 2: not shown
light: B2 light 1
For B5, in [3], the “EC50 … with NIH/3T3-huFAP clone 19” value stood at 0.1 nM and the “EC50 of NFκB/luciferase activation, 4-1BB reporter HeLa with WM-266-4” value came to 0.3 nM.

B6: 49B4/FAP P329GLALA IgG1 2+2 (bispecific antibody)
heavy: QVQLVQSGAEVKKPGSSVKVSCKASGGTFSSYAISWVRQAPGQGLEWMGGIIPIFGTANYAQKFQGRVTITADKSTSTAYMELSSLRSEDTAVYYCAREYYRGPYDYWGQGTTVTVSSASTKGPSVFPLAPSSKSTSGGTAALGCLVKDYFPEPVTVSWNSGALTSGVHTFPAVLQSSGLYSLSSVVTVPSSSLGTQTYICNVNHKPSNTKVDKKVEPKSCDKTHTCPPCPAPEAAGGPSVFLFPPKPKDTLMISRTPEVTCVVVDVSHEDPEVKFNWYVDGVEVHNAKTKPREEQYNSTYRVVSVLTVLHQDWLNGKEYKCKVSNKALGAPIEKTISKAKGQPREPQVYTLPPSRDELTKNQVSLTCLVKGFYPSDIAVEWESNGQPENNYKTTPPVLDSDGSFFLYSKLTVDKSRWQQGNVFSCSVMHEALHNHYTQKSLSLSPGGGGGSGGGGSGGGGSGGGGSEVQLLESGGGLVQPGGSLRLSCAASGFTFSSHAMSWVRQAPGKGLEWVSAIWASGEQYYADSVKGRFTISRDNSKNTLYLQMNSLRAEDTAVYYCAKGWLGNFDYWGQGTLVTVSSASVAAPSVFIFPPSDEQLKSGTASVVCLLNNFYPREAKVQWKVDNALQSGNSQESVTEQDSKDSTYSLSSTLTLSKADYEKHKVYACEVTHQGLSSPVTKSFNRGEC
light 1: DIQMTQSPSTLSASVGDRVTITCRASQSISSWLAWYQQKPGKAPKLLIYDASSLESGVPSRFSGSGSGTEFTLTISSLQPDDFATYYCQQYSSQPYTFGQGTKVEIKRTVAAPSVFIFPPSDEQLKSGTASVVCLLNNFYPREAKVQWKVDNALQSGNSQESVTEQDSKDSTYSLSSTLTLSKADYEKHKVYACEVTHQGLSSPVTKSFNRGEC
light 2: B2 light 2
notes: also called 2+2 (49B4/28H1); bispecific bivalent 2+2 construct 49B4
In turn, B6 yielded an EC50 in experiment [4] of 1.31 nM.

B7: 11D5/FAP P329GLALA IgG1 2+2 (bispecific antibody)
heavy: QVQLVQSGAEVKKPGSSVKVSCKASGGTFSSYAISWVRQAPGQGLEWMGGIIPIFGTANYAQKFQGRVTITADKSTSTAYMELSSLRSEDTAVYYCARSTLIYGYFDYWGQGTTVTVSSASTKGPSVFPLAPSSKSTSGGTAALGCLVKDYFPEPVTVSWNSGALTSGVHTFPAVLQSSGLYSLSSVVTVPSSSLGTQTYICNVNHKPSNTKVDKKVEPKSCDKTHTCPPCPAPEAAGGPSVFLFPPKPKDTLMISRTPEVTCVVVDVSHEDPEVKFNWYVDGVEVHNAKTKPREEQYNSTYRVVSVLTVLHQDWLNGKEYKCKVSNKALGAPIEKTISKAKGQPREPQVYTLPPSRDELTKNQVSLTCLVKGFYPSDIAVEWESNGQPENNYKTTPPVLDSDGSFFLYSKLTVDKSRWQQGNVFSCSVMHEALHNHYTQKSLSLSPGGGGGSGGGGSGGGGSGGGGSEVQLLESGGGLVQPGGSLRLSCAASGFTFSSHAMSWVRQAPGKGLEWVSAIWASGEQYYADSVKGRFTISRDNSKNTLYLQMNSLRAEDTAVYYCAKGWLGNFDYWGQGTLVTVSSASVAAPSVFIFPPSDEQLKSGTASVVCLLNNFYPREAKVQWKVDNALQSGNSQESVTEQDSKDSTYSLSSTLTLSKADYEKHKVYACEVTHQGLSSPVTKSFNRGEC
light 1: not shown
light 2: B2 light 2
Consider B7, for which the “EC50 … with NIH/3T3-huFAP clone 19” value in experiment [3] worked out at 0.05 nM.

B8: 1G4/FAP P329GLALA IgG1 2+2 (bispecific antibody)
heavy: not shown
light 1: not shown
light 2: B2 light 2
notes: also called 1G4 FAP 2+2
In experiment [5], B8 had an EC50 of 9.37 nM.

B9: 11D5 P329GLALA IgG1 (antibody, V domains shown)
VH: QVQLVQSGAEVKKPGSSVKVSCKASGGTFSSYAISWVRQAPGQGLEWMGGIIPIFGTANYAQKFQGRVTITADKSTSTAYMELSSLRSEDTAVYYCARSTLIYGYFDYWGQGTTVTVSS
VL: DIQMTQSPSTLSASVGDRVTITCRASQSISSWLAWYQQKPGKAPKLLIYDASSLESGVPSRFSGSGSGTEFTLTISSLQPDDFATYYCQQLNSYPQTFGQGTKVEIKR
notes: anti-4-1BB; also called 11D5 IgG
B9: the Kd in experiment [6] amounted to 36 nM; in experiment [7], 24 nM. Besides, the results for the koff in experiment [6] and in experiment [7] were 0.0012 s⁻¹ and 0.00077 s⁻¹, respectively. The kon in experiment [6] was 32000 M⁻¹ s⁻¹; in experiment [7] it was 31000 M⁻¹ s⁻¹. Further, the EC50 in [8] was found to be 0.97 nM; in experiment [9] it was 1.46 nM; in experiment [11], 1.04 nM. Moreover, the “EC50 of increase of IFNγ secretion in activated CD8+ T cells (surface-immobilized IgG)” value in experiment [10] stood at 0.06 nM. Also, in experiment [12], the binding result is “no binding”.

B10: OX40(49B4)/FAP(28H1) P329GLALA IgG1 4+2 (bispecific antibody)
heavy: not shown
light 1: B6 light 1 with E123R, Q124K
light 2: EVQLLESGGGLVQPGGSLRLSCAASGFTFSSHAMSWVRQAPGKGLEWVSAIWASGEQYYADSVKGRFTISRDNSKNTLYLQMNSLRAEDTAVYYCAKGWLGNFDYWGQGTLVTVSSASVAAPSVFIFPPSDEQLKSGTASVVCLLNNFYPREAKVQWKVDNALQSGNSQESVTEQDSKDSTYSLSSTLTLSKADYEKHKVYACEVTHQGLSSPVTKSFNRGEC
notes: also called 4+2 (49B4/28H1)
For B10, in experiment [13], the Kd is 0.00441 nM. Also, the response in experiment [4] was half-maximal at 5.51 nM (EC50).

B11: 25G7 P329GLALA IgG1 (antibody, V domains shown)
VH: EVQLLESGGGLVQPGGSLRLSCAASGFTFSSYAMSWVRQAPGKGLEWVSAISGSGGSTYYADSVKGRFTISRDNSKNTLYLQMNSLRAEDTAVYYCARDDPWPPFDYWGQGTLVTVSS
VL: SSELTQDPAVSVALGQTVRITCQGDSLRSYYASWYQQKPGQAPVLVIYGKNNRPSGIPDRFSGSSSGNTASLTITGAQAEDEADYYCNSLDRRGMWVFGGGTKLTVLG
notes: anti-4-1BB; also called 25G7 IgG
For B11, the Kd in experiment [6] came to 34 nM; in [7], 17 nM. Besides, the koff in experiment [6] was 0.00099 s⁻¹; in experiment [7], 0.00046 s⁻¹. The kon in experiment [6] is 29000 M⁻¹ s⁻¹; in experiment [7], 27000 M⁻¹ s⁻¹. The results for the EC50 in [8], in experiment [9] and in experiment [11] were 6.68 nM, 29 nM and 4.52 nM, respectively. Also, the “EC50 of increase of IFNγ secretion in activated CD8+ T cells (surface-immobilized IgG)” value in experiment [10] came to 0.12 nM. Besides, the binding result in experiment [12] is on record as “no binding”.

B12: (GITR-DP47) [8A06] 4+1 construct with charged residues (bispecific antibody, V domains shown)
VH: QVQLVQSGAEVKKPGSSVKVSCKASGGTFSSYAISWVRQAPGQGLEWMGGIIPIFGTANYAQKFQGRVTITADKSTSTAYMELSSLRSEDTAVYYCARGYYAIDYWGQGTTVTVSS
VL: SSELTQDPAVSVALGQTVRITCQGDSLRSYYASWYQQKPGQAPVLVIYGKNNRPSGIPDRFSGSSSGNTASLTITGAQAEDEADYYCNSPQTSGSAVFGGGTKLTVL
Regarding B12, in experiment [14], a half-maximal effect (EC50) was put at 1.92 nM.

B13: (GITR-FAP) [8A06] 4+2 construct with charged residues (bispecific antibody, V domains shown)
VH 1: B12 VH
VL 1: B12 VL
VH 2: EVQLLESGGGLVQPGGSLRLSCAASGFTFSSHAMSWVRQAPGKGLEWVSAIWASGEQYYADSVKGRFTISRDNSKNTLYLQMNSLRAEDTAVYYCAKGWLGNFDYWGQGTLVTVSS
VL 2: EIVLTQSPGTLSLSPGERATLSCRASQSVSRSYLAWYQQKPGQAPRLLIIGASTRATGIPDRFSGSGSGTDFTLTISRLEPEDFAVYYCQQGQVIPPTFGQGTKVEIK
notes: human IgG1 P329G LALA; also called 4+2 CR
B13: in [14], the EC50 worked out at 2.06 nM.
